From US20100041597A1, “PEPTIDES TARGETED TO PROTEIN KINASE C ISOFORMS AND USES THEREOF” (priority 2005, published 2010)
Entries after “also recorded” stand apart in the source; their conditions may differ. Blank lines part the entries; values can stand above or below the substance they belong to.

Tests used:
PKC-δ = PKC-δ (Homo sapiens, UniProt Q05655); test: ELISA-based competitive binding assay with purified PKC isoform; set-up: key to Affinity for PKC isoform δ: —: no detectable affinity; Low to very low affinity at 10X or 20X or both PRE concentrations in at least one cell line in the cell extract assay; Low affinity in purified isoform assay.; Moderate affinity at 10X or 20X or both PRE concentrations in at least one cell line in the cell extract assay.; High affinity at 10X or 20X or both PRE concentrations in at least one cell line in the cell extract assay; High affinity in purified isoform assay; conditions: for inhibition at 50 µM / inhibition at 100 µM / inhibition at 200 µM / calculated binding capacity (100-% n) after subtraction of the DMSO apparent binding capacity: purified PKC-δ, may be overestimated (longer colour development); for inhibition at 50 µM / inhibition at 100 µM / inhibition at 200 µM: read-out: calculated binding capacity (100-% n) after subtraction of the DMSO apparent binding capacity; for Affinity for PKC isoform δ: Purified isoform, Table 20; for targeting of / affinity for PKC-δ: purified isoform, Tables 14-19
Protocol: (§1) Peptides PRE 1, 2, 3, 4, 5, 6, 7, 8, 9, 10, 11, 12 and 13 (see Table 3) were tested for their ability to interfere with binding of PKC isoform-specific antibodies to their target PKC isoforms using a competitive binding assay and purified PKC isoforms.
(§2) Procedure: Competitive binding was assessed using a 96 well plate ELISA-based assay as described below.
(§3) Greiner 96 well ELISA plates were coated with the appropriate PKC isoform diluted in PBSN (PBS with Calcium/Magnesium+0.05% Sodium azide w/w). 50 μL/well at 250 ng/mL was used. Control wells contained PBSN only. Plates were incubated overnight at 4° C.
(§4) The plates were washed 3 times with 200 μL of dH2O per well, then 100 μL of blocking solution was added per well and the plate incubated for 1 h at 37° C. The washing steps with dH2O were repeated and 50 μL of the appropriate PRE solution (PRE stock solution [20 mM in DMSO] diluted in PBSN) was added and the plate incubated for 1 h at room temperature.
(§5) After incubation, 5 μL of 1.1:400 anti-PKC (isoform specific antibody) was added per well (to provide a final concentration of 1:4000). For PKC-epsilon, 1.1:800 dilution was used and for PKC-zeta a 1.1:100 dilution was used due to high and low binding affinity, respectively. The plates were then incubated 1 h at room temperature, followed by washing with dH2O as described above.
(§6) 50 μL of 1:1000 dilution of Alkaline Phosphatase (AP) conjugated antibody (anti-rabbit for all except zeta, which was anti-goat) was then added and the plate incubated for 1 h at room temperature. Washing with dH2O was then repeated. Finally, 100 μL of pNPP solution in pNPP buffer (2 mM MgCl2, 100 mM Sodium bicarbonate in water, pH 9.8) was added to all wells and incubated for 8 minutes for α, βI, βII ε, and ζ, or for 15-20 mins for […] (until sufficient coloration is observed). The reaction was stopped by addition of Stop solution (2N NaOH) and the absorbance at 405 nm was read on a Galaxy Plate reader.
(§7) Controls were PKC without PRE; blank controls, and controls containing the final concentrations of DMSO used for solubilizing the PREs. The non-specific binding capacity related to DMSO was also measured.
(§8) The antibodies used were as follows: anti-PKC α (Cat. No. SC-208); anti-PKC βI (Cat. No. SC-209); anti-PKC βII (Cat. No. SC-210); anti-PKC δ (Cat. No. SC-213); anti-PKC ε (Cat. No. SC-214); anti-PKC ζ (Cat. No. SC-216-G) (all from Santa Cruz Biotechnology, Inc.). The AP-conjugated antibodies were obtained from Jackson Immuno Research Laboratories (West Grove, Pa.).
(§9) Calculations: The OD values measured at 405 nm represent the free PKC coated per well.
(§10) OD405 PKC alone−Blank OD405 of each sample=OD405 coated isoform
(§11) (OD405 of sample X/OD405 coated isoform)×100=% n that represents the percentage of X binding compared to control.
(§12) 100-% n measures the relative binding capacity of X towards the tested isoform.
(§13) The apparent binding capacity of the DMSO samples was then subtracted from X binding capacity.
(§14) All measurements were made in triplicate and the values in the table represent the averaged calculated binding capacity values after subtraction of the DMSO apparent binding capacity (averaged from 12 values, respectively 10.80, 11.20 and 16.40 corresponding to the concentrations of DMSO used to dilute the […] at 200, 100 and 50 μM respectively). The results allow for quantitative comparison of the binding capacity of each PRE towards an individual isoform within each table, but not among isoforms due to differences in sensitivity of the specific antibodies toward the secondary antibody. This applies particularly to PKC-delta. As noted above, the colour development duration was increased 2-3 times and, as a result, the OD405 measurements may be overestimated for this isoform.

PKC-ε = target: T1, PKC-ε (Homo sapiens, UniProt Q02156); test: as above; set-up: key to Affinity for PKC isoform ε: —: no detectable affinity; Low to very low affinity at 10X or 20X or both PRE concentrations in at least one cell line in the cell extract assay; Low affinity in purified isoform assay.; Moderate affinity at 10X or 20X or both PRE concentrations in at least one cell line in the cell extract assay.; High affinity at 10X or 20X or both PRE concentrations in at least one cell line in the cell extract assay; High affinity in purified isoform assay; conditions: for inhibition at 50 µM / inhibition at 100 µM / inhibition at 200 µM / calculated binding capacity (100-% n) after subtraction of the DMSO apparent binding capacity: purified PKC-ε; for inhibition at 50 µM / inhibition at 100 µM / inhibition at 200 µM: read-out: calculated binding capacity (100-% n) after subtraction of the DMSO apparent binding capacity; for Affinity for PKC isoform ε: Purified isoform, Table 20
T1 sequence (Q02156 1-737): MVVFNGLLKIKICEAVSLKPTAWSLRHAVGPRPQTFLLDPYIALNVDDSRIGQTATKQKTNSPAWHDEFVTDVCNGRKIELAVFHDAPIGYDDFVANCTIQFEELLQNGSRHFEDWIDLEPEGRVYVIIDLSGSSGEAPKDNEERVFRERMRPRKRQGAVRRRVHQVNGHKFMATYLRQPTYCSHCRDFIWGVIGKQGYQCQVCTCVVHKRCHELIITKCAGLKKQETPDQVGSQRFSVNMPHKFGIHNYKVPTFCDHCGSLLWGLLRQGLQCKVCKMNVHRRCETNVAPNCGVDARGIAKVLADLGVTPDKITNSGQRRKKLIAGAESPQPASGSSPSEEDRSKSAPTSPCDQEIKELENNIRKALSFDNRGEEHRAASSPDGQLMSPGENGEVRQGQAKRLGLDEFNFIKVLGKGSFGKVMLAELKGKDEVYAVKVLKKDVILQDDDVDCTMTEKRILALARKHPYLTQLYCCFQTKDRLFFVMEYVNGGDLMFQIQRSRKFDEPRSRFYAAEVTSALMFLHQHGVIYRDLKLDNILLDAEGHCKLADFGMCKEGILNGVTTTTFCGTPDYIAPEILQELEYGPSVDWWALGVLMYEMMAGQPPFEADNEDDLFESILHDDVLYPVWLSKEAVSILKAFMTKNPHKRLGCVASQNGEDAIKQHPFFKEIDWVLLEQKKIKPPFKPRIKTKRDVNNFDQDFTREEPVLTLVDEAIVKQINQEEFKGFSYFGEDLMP
Protocol: as §1, §2, §3, §4, §5, §6, §7, §8, §9, §10, §11, §12, §13, §14

Sequence of PKC-δ (Q05655 whole entry, canonical isoform): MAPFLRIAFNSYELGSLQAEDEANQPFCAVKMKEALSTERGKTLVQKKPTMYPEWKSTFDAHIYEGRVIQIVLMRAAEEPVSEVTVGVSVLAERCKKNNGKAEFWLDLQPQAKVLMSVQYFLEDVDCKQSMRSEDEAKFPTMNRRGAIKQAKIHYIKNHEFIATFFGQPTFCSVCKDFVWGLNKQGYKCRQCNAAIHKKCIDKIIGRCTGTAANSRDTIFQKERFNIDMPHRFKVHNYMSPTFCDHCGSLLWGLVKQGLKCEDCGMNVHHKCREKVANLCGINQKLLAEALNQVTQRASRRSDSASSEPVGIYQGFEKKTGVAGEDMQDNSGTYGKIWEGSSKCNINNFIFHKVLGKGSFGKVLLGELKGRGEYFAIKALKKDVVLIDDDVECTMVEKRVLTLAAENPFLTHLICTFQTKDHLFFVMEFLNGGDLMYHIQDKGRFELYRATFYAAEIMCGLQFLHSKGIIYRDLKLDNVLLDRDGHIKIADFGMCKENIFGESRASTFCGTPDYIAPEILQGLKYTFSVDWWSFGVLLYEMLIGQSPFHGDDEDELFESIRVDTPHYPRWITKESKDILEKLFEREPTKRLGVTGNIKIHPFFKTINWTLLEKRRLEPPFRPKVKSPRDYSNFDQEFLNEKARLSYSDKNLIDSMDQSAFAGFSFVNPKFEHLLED

Substance: Ac-AKGIQEVKGGDAQNLIGISI-NH2 [PRE 3]
- inhibition at 50 µM (PKC-δ; PRE 50 μM): 48.3%
- inhibition at 100 µM (PKC-δ; PRE 100 μM): 56%
- inhibition at 200 µM (PKC-δ; PRE 200 μM): 57%
- Affinity for PKC isoform δ (PKC-δ): H
- targeting of / affinity for PKC-δ (PKC-δ): targeted most strongly
- inhibition at 50 µM (PKC-ε; PRE 50 μM): 34%
- inhibition at 100 µM (PKC-ε; PRE 100 μM): 31.5%
- inhibition at 200 µM (PKC-ε; PRE 200 μM): 31%
- Affinity for PKC isoform ε (PKC-ε): H
- targeting of PKC-ε (PKC-ε; purified isoform, Tables 14-19): targeted most strongly

Substance: Ac-AKGIQEVKGGKDAQNLIGISI-NH2 [PRE 5]
- inhibition at 50 µM (PKC-δ; PRE 50 μM): 0.2%
- inhibition at 100 µM (PKC-δ; PRE 100 μM): 0%
- inhibition at 200 µM (PKC-δ; PRE 200 μM): 4.31%
- Affinity for PKC isoform δ (PKC-δ): L
- inhibition at 50 µM (PKC-ε; PRE 50 μM): 0%
- inhibition at 100 µM (PKC-ε; PRE 100 μM): 0%
- inhibition at 200 µM (PKC-ε; PRE 200 μM): 1.8%
- Affinity for PKC isoform ε (PKC-ε): —

Substance: Ac-ISIGILQNADK-NH2 [PRE 7]
- Affinity for PKC isoform δ (PKC-δ): —
- Affinity for PKC isoform ε (PKC-ε): L

Substance: Ac-KDANQLIGISI-NH2 [PRE 6]
- Affinity for PKC isoform δ (PKC-δ): L
- calculated binding capacity (100-% n) after subtraction of the DMSO apparent binding capacity (PKC-ε; PRE 50 μM): 2.61
- calculated binding capacity (100-% n) after subtraction of the DMSO apparent binding capacity (PKC-ε; PRE 100 μM): 0.46
- Affinity for PKC isoform ε (PKC-ε): —

Substance: Ac-KDAQNLIGISI-NH2 [PRE 4, Ac-KDAQNLIGISI-NH2]
- inhibition at 50 µM (PKC-δ; PRE 50 μM): 29.2%
- inhibition at 100 µM (PKC-δ; PRE 100 μM): 30.7%
- inhibition at 200 µM (PKC-δ; PRE 200 μM): 17.3%
- Affinity for PKC isoform δ (PKC-δ): H
- targeting of / affinity for PKC-δ (PKC-δ): targeted most strongly; also recorded: showed an affinity for PKC-6
- inhibition at 50 µM (PKC-ε; PRE 50 μM): 0%
- inhibition at 100 µM (PKC-ε; PRE 100 μM): 0%
- inhibition at 200 µM (PKC-ε; PRE 200 μM): 2.58%
- Affinity for PKC isoform ε (PKC-ε): —

Substance: Ac-isigilgnadk-NH2 [PRE 9]
- calculated binding capacity (100-% n) after subtraction of the DMSO apparent binding capacity (PKC-δ; PRE 50 μM): 16.23
- calculated binding capacity (100-% n) after subtraction of the DMSO apparent binding capacity (PKC-δ; PRE 100 μM): 19.27
- calculated binding capacity (100-% n) after subtraction of the DMSO apparent binding capacity (PKC-δ; PRE 200 μM): 9.95
- Affinity for PKC isoform δ (PKC-δ): L
- calculated binding capacity (100-% n) after subtraction of the DMSO apparent binding capacity (PKC-ε; PRE 50 μM): 16.35
- calculated binding capacity (100-% n) after subtraction of the DMSO apparent binding capacity (PKC-ε; PRE 100 μM): 8.53
- Affinity for PKC isoform ε (PKC-ε): L

Substance: ILEDKGGDAQNLIGISI [PRE 8]
- Affinity for PKC isoform δ (PKC-δ): —
- Affinity for PKC isoform ε (PKC-ε): —

Substance: RRKKGGKDFVVKR [PRE 1]
- Affinity for PKC isoform δ (PKC-δ): H
- targeting of / affinity for PKC-δ (PKC-δ): targeted most strongly
- calculated binding capacity (100-% n) after subtraction of the DMSO apparent binding capacity (PKC-ε; PRE 100 μM): 5.47
- calculated binding capacity (100-% n) after subtraction of the DMSO apparent binding capacity (PKC-ε; PRE 200 μM): 0.83
- Affinity for PKC isoform ε (PKC-ε): —

More lines, now with the values ahead:

- calculated binding capacity (100-% n) after subtraction of the DMSO apparent binding capacity (PKC-δ; PRE 200 μM): 9.47
- Affinity for PKC isoform δ (PKC-δ): —
- calculated binding capacity (100-% n) after subtraction of the DMSO apparent binding capacity (PKC-ε; PRE 50 μM): 0.91
- calculated binding capacity (100-% n) after subtraction of the DMSO apparent binding capacity (PKC-ε; PRE 200 μM): 1.75
- Affinity for PKC isoform ε (PKC-ε): —
Substance: Ac-ISIGILNQADK-NH2 [PRE 10]

- Affinity for PKC isoform δ (PKC-δ): L
- Affinity for PKC isoform ε (PKC-ε): —
Substance: Ac-KDAQNLI-NH2 [PRE 12]

- Affinity for PKC isoform δ (PKC-δ): L
- Affinity for PKC isoform ε (PKC-ε): —
Substance: Ac-RDAQNLI-NH2 [PRE 13]

- Affinity for PKC isoform δ (PKC-δ): H
- targeting of / affinity for PKC-δ (PKC-δ): targeted most strongly
- Affinity for PKC isoform ε (PKC-ε): L
Substance: Ac-RDAQNLIGISI-NH2 [PRE 11]
